According to patent publication US20120028912A1 (NEW YORK UNIVERSITY AND THE RESEARCH FOUNDATION OF THE …, published 2012):

Experiments:
[1] = molecular target: T1, N-terminal biotinylated and lysine-acetylated Tat peptide (Tat AcK50) (HIV-1); assay: pull-down with the biotinylated Tat-K50ac peptide on streptavidin agarose, anti-GST Western blot
T1 construct: also called biotinylated and wild type Tat peptide; Tat peptide containing AcK50

[2] = molecular target: T1, N-terminal biotinylated and …; assay: pull-down with the N-terminal biotinylated, lysine-acetylated Tat peptide on streptavidin agarose, anti-GST western blot
[3] = molecular target: p300/CBP-associated factor (P/CAF), HA-tagged (human, UniProt Q92831 1-832); assay: co-immunoprecipitation from cells with anti-FLAG (FLAG-Tat), western blot with anti-HA (HA-P/CAF)
[4] = molecular target: T2, Tat AcK50 peptide SYGR-AcK-KRRQRC (SEQ ID NO:50) (HIV-1); assay: NMR 2D 1H-15N HSQC
T2 construct: Synthetic peptide

B1: TIF16 (624-812) (other)
chain: SATICRVCQKPGDLVMCNQCEFCFHLDCHLPALQDVPGEEWSCSLCHVLPDLKEEDGSLSLDGADSTGVVAKLSPANQRKCERVLLALFCHEPCRPLHQLATDSTFSLDQPGGTLDLTLIRARLQEKLSPPYSSPQEFAQDVGRMFKQFNKLTEDKADVQSIIGLQRFFETRMNEAFGDTKFSAVLVEP
notes: also called GST-fusion TIF1b bromodomain-containing construct, residues 624-812 (lane 6); the sheet prints 'TIF16'; not shown: GST tag and linker of the pGEX4T-3 vector
B1: no binding [1].

B2: GST-fusion bromodomain from TIF1 (other)
chain: KLSPANQRKCERVLLALFCHEPCRPLHQLATDSTFSLDQPGGTLDLTLIRARLQEKLSPPYSSPQEFAQDVGRMFKQFNKLTEDKADVQSIIGLQRFFETRMNEAFGDTKFSAVLVEP
notes: domain: bromodomain; also called bromodomain of TIF1; TIF1b
B2: no binding [2].

B3: HIV-1 Tat protein, wild type (other)
chain: MEPVDPRLEPWKHPGSQPKTASNNCYCKRCCLHCQVCFTKKGLGISYGRKKRRQRRRAPQDSKTHQVSLSKQPASQPRGDPTGPKESKKKVERETETDPED
notes: also called Tat-KK; wild type Tat
B3: binds [3].

B4: HIV-1 Tat double mutant K50R/K51R (other)
chain: MEPVDPRLEPWKHPGSQPKTASNNCYCKRCCLHCQVCFTKKGLGISYGRRRRRQRRRAPQDSKTHQVSLSKQPASQPRGDPTGPKESKKKVERETETDPED
notes: also called Tat-RR; Tat K50R/K51R mutant protein
B4: no binding [3].

B5: bromodomain of P/CAF (residues 719-832 of SEQ ID NO:2) (other)
chain: SKEPRDPDQLYSTLKSILQQVKSHQSAWPFMEPVKRTEAPGYYEVIRFPMDLKTMSERLKNRYYVSKKLFMADLQRVFTNCKEYNAAESEYYKCANILEKFFFSKIKEAGLIDK
notes: also called P/CAF bromodomain; PCAF bromodomain
B5 showed a Kd [4] of roughly 20 µM.

B6: CBP (1082-1317) (other)
chain: KKIFKPEELRQALMPTLEALYRQDPESLPFRQPVDPQLLGIPDYFDIVKNPMDLSTIKRKLDTGQYQEPWQYVDDVWLMFNNAWLYNRKTSRVYKFCSKLAEVFEQEIDPVMQSLGYCCGRKYEFSPQTLCCYGKQLCTIPRDAAYYSYQNRYHFCEKCFTEIQGENVTLGDDPSQPQTTISKDQFEKKKNDTLDPEPFVDCKECGRKMHQICVLHYDIIWPSGFVCDNCLKKTGR
notes: also called GST-fusion CBP bromodomain-containing construct, residues 1082-1317 (lane 4); not shown: GST tag and linker of the pGEX4T-3 vector
B6: no binding [1].

B7: TIF16 (702-812) (other)
chain: RKCERVLLALFCHEPCRPLHQLATDSTFSLDQPGGTLDLTLIRARLQEKLSPPYSSPQEFAQDVGRMFKQFNKLTEDKADVQSIIGLQRFFETRMNEAFGDTKFSAVLVEP
notes: also called GST-fusion TIF1b bromodomain construct, residues 702-812 (lane 5); not shown: GST tag and linker of the pGEX4T-3 vector
B7: no binding [1].
